T1: FcγRIIa H (FcgRIIa type H, His at position 131), extracellular domain with C-terminal His tag (human, UniProt P12318 34-217)
T1 construct: extracellular domain; also called 2aH; FcgRIIa H; not shown: His tag at the C terminus
T1 sequence (looked up): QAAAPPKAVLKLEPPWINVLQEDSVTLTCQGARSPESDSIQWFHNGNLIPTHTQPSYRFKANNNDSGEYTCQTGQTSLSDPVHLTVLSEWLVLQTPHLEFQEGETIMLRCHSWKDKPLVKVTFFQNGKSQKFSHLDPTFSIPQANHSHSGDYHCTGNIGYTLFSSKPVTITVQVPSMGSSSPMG

T2: FcγRIIb, extracellular domain with C-terminal His tag (human, UniProt P31994 43-217)
T2 construct: extracellular domain; also called 2b; FcgRIIb; not shown: His tag at the C terminus
T2 sequence (looked up): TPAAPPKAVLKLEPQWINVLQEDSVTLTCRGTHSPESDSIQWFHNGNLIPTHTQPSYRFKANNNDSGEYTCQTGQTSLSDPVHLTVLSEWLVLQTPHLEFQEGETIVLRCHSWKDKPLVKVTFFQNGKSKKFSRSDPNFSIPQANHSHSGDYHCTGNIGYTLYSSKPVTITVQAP

T3: FcγRIIa H (human, UniProt P12318 34-217)
T3 construct: extracellular domain; also called FcγRIIa type H; 2aH; not shown: His tag at the C terminus
T3 sequence (looked up): T1 sequence (looked up)

T4: FcγRIIb (human, UniProt P31994 43-217)
T4 construct: extracellular domain; also called 2b; not shown: His tag at the C terminus
T4 sequence (looked up): T2 sequence (looked up)

B1: GpH7-A5/GpH7-B3 variant N325_20W/GpL16-k0 (antibody, human IgG1, kappa)
heavy 1: not shown
heavy 2: not shown
light: DIVMTQSPLSLPVTPGEPASISCQASESLVHSNRNTYLHWYLQKPGQSPQLLIYKVSNRFSGVPDRFSGSGSGTDFTLKISRVEAEDVGVYYCSQNTHVPPTFGQGTKVEIERTVAAPSVFIFPPSDEQLKSGTASVVCLLNNFYPREAKVQWKVDNALQSGNSQESVTEQDSKDSTYSLSSTLTLSKADYEKHKVYACEVTHQGLSSPVTKSFNRGEC
notes: He Ab; alteration in one H chain only; also called He Ab
B2: GpH7-A5/GpH7-B3 variant N325_08L/GpL16-k0 (antibody, human IgG1, kappa)
heavy 1: not shown
heavy 2: not shown
light: B1 light
notes: as for B1
B3: GpH7-A5/GpH7-B3 variant N325_07I/GpL16-k0 (antibody, human IgG1, kappa)
heavy 1: not shown
heavy 2: not shown
light: B1 light
notes: as for B1
B4: GpH7-A5/GpH7-B3 variant P331_15Y/GpL16-k0 (antibody, human IgG1, kappa)
heavy 1: not shown
heavy 2: not shown
light: B1 light
notes: as for B1
B5: GpH7-A5/GpH7-B3 variant P331_03V/GpL16-k0 (antibody, human IgG1, kappa)
heavy 1: not shown
heavy 2: not shown
light: B1 light
notes: as for B1
B6: GpH7-A5/GpH7-B3 variant S337_18N/GpL16-k0 (antibody, human IgG1, kappa)
heavy 1: not shown
heavy 2: not shown
light: B1 light
notes: as for B1
B7: GpH7-A5/GpH7-B3 variant N325_09D/GpL16-k0 (antibody, human IgG1, kappa)
heavy 1: not shown
heavy 2: not shown
light: B1 light
notes: as for B1
B8: GpH7-A5/GpH7-B3 variant P331_06M/GpL16-k0 (antibody, human IgG1, kappa)
heavy 1: not shown
heavy 2: not shown
light: B1 light
notes: as for B1
B9: GpH7-A5/GpH7-B3 variant P331_10E/GpL16-k0 (antibody, human IgG1, kappa)
heavy 1: not shown
heavy 2: not shown
light: B1 light
notes: as for B1
B10: GpH7-A5/GpH7-B3 variant P331_04F/GpL16-k0 (antibody, human IgG1, kappa)
heavy 1: not shown
heavy 2: not shown
light: B1 light
notes: as for B1
B11: GpH7-A5/GpH7-B3 variant S337_15Y/GpL16-k0 (antibody, human IgG1, kappa)
heavy 1: not shown
heavy 2: not shown
light: B1 light
notes: as for B1
B12: GpH7-A5/GpH7-B3 variant P331_16H/GpL16-k0 (antibody, human IgG1, kappa)
heavy 1: not shown
heavy 2: not shown
light: B1 light
notes: as for B1
B13: GpH7-A5/GpH7-B3 variant P331_20W/GpL16-k0 (antibody, human IgG1, kappa)
heavy 1: not shown
heavy 2: not shown
light: B1 light
notes: as for B1
B14: GpH7-A5/GpH7-B3 variant N325_13S/GpL16-k0 (antibody, human IgG1, kappa)
heavy 1: not shown
heavy 2: not shown
light: B1 light
notes: as for B1
B15: GpH7-A5/GpH7-B3 variant P331_07I/GpL16-k0 (antibody, human IgG1, kappa)
heavy 1: not shown
heavy 2: not shown
light: B1 light
notes: as for B1
B16: GpH7-A5/GpH7-B3 variant A330_11K/GpL16-k0 (antibody, human IgG1, kappa)
heavy 1: not shown
heavy 2: not shown
light: B1 light
notes: Heterodimerized IgG1; mutation in the GpH7-B3 chain only; also called He Ab
B17: GpH7-A5/GpH7-B3 variant E333_08L/GpL16-k0 (antibody, human IgG1, kappa)
heavy 1: not shown
heavy 2: not shown
light: B1 light
notes: as for B16
B18: GpH7-A5/GpH7-B3 variant E333_04F/GpL16-k0 (antibody, human IgG1, kappa)
heavy 1: not shown
heavy 2: not shown
light: B1 light
notes: as for B16
B19: GpH7-A5/GpH7-B3 variant I332_19Q/GpL16-k0 (antibody, human IgG1, kappa)
heavy 1: not shown
heavy 2: not shown
light: B1 light
notes: as for B16
B20: GpH7-A5/GpH7-B3 variant A330_19Q/GpL16-k0 (antibody, human IgG1, kappa)
heavy 1: not shown
heavy 2: not shown
light: B1 light
notes: as for B16
B21: GpH7-A5/GpH7-B3 variant H268_04F/GpL16-k0 (antibody, human IgG1, kappa)
heavy 1: not shown
heavy 2: not shown
light: B1 light
notes: as for B16
B22: GpH7-A5/GpH7-B3 variant I332_13S/GpL16-k0 (antibody, human IgG1, kappa)
heavy 1: not shown
heavy 2: not shown
light: B1 light
notes: as for B16
B23: GpH7-A5/GpH7-B3 variant I336_10E/GpL16-k0 (antibody, human IgG1, kappa)
heavy 1: not shown
heavy 2: not shown
light: B1 light
notes: as for B16
B24: GpH7-A5/GpH7-B3 variant D270_10E/GpL16-k0 (antibody, human IgG1, kappa)
heavy 1: not shown
heavy 2: not shown
light: B1 light
notes: as for B16
B25: GpH7-A5/GpH7-B3 variant Q295_05P/GpL16-k0 (antibody, human IgG1, kappa)
heavy 1: not shown
heavy 2: not shown
light: B1 light
notes: as for B16
B26: GpH7-A5/GpH7-B3 variant I332_16H/GpL16-k0 (antibody, human IgG1, kappa)
heavy 1: not shown
heavy 2: not shown
light: B1 light
notes: as for B16
B27: GpH7-A5/GpH7-B3 variant E333_13S/GpL16-k0 (antibody, human IgG1, kappa)
heavy 1: not shown
heavy 2: not shown
light: B1 light
notes: as for B16
B28: GpH7-A5/GpH7-B3 variant A330_12R/GpL16-k0 (antibody, human IgG1, kappa)
heavy 1: not shown
heavy 2: not shown
light: B1 light
notes: as for B16
B29: GpH7-A5/GpH7-B3 variant E333_14T/GpL16-k0 (antibody, human IgG1, kappa)
heavy 1: not shown
heavy 2: not shown
light: B1 light
notes: as for B16
B30: GpH7-A5/GpH7-B3 variant A330_16H/GpL16-k0 (antibody, human IgG1, kappa)
heavy 1: not shown
heavy 2: not shown
light: B1 light
notes: as for B16
B31: GpH7-A5/GpH7-B3 variant K326_12R/GpL16-k0 (antibody, human IgG1, kappa)
heavy 1: not shown
heavy 2: not shown
light: B1 light
notes: as for B16
B32: GpH7-A5/GpH7-B3 variant I336_18N/GpL16-k0 (antibody, human IgG1, kappa)
heavy 1: not shown
heavy 2: not shown
light: B1 light
notes: as for B16
B33: GpH7-A5/GpH7-B3 variant I332_18N/GpL16-k0 (antibody, human IgG1, kappa)
heavy 1: not shown
heavy 2: not shown
light: B1 light
notes: as for B16
B34: GpH7-A5/GpH7-B3 variant I336_03V/GpL16-k0 (antibody, human IgG1, kappa)
heavy 1: not shown
heavy 2: not shown
light: B1 light
notes: as for B16
B35: GpH7-A5/GpH7-B3 variant I332_03V/GpL16-k0 (antibody, human IgG1, kappa)
heavy 1: not shown
heavy 2: not shown
light: B1 light
notes: as for B16
B36: GpH7-A5/GpH7-B3 variant G236_20W/GpL16-k0 (antibody, human IgG1, kappa)
heavy 1: not shown
heavy 2: not shown
light: B1 light
notes: as for B16
B37: GpH7-A5/GpH7-B3 variant E333_09D/GpL16-k0 (antibody, human IgG1, kappa)
heavy 1: not shown
heavy 2: not shown
light: B1 light
notes: as for B16

target: T1, FcγRIIa H (FcgRIIa type H, His at …); assay: SPR (Biacore), relative binding, GpH7-A5/GpH7-B3/GpL16-k0 = 100

| He/Con_2aH | Binder |
| --- | --- |
| 47.2 % of control | B1 |
| 52 % of control | B2 |
| 38.1 % of control | B3 |
| 86 % of control | B4 |
| 82.5 % of control | B5 |
| 99.8 % of control | B6 |
| 53.1 % of control | B7 |
| 85.1 % of control | B8 |
| 87.1 % of control | B9 |
| 84.7 % of control | B10 |
| 99.4 % of control | B11 |
| 84.5 % of control | B12 |
| 82.8 % of control | B13 |
| 79.7 % of control | B14 |
| 77.4 % of control | B15 |

target: T2, FcγRIIb, extracellular domain with …; assay: as above

| He/Con_2b | Binder |
| --- | --- |
| 169 % of control | B1 |
| 197 % of control | B2 |
| 171 % of control | B3 |
| 114 % of control | B4 |
| 119 % of control | B5 |
| 103 % of control | B6 |
| 124 % of control | B7 |
| 102 % of control | B8 |
| 116 % of control | B9 |
| 110 % of control | B10 |
| 100 % of control | B11 |
| 116 % of control | B12 |
| 111 % of control | B13 |
| 177 % of control | B14 |
| 114 % of control | B15 |

target: T3, FcγRIIa H; assay: SPR (Biacore), antibody captured, FcγR as analyte; binding relative to GpH7-A5/GpH7-B3/GpL16-k0 = 100
Method: (§1) The heterodimerized antibodies He Abs in which one of the H chains was introduced with an alteration were assayed for their binding activities to each activating FcγR and inhibitory FcγR according to the method described in Example 4. […] The activating FcγRs in FIGS. 26, 27, 28, and 29 are FcγRIa, FcγRIIa (R), FcγRIIa (H), and FcγRIIIa, respectively.
(§2) Analysis of interaction between objective antibody and the FcγR was carried out using Biacore T100 (GE Healthcare). HBS-EP+ (GE Healthcare) was used as the running buffer, and the measurement temperature was set to 25° C. Chips produced by immobilizing the antigen peptide by the amine coupling method to a Series S Sencor Chip CM5 (GE Healthcare), or alternatively, chips produced by allowing preliminarily biotinylated antigen peptides to interact with and immobilize onto a Series S Sensor Chip SA (certified) (GE Healthcare) were used. Antibodies of interest were captured onto an antigen peptide-immobilized chip, and allowed to interact to each FcγR diluted with running buffer. To regenerate and repeatedly use the chip, the antibodies captured on the chip were washed off by reacting 10 mM glycine-HCl, pH 1.5.

| He/Con_2aH | Binder |
| --- | --- |
| 109 % of control | B16 |
| 102 % of control | B17 |
| 102 % of control | B18 |
| 108 % of control | B19 |
| 102 % of control | B20 |
| 111 % of control | B21 |
| 110 % of control | B22 |
| 102 % of control | B23 |
| 102 % of control | B24 |
| 103 % of control | B25 |
| 109 % of control | B26 |
| 101 % of control | B27 |
| 108 % of control | B28 |
| 100 % of control | B29 |
| 101 % of control | B30 |
| 101 % of control | B31 |
| 103 % of control | B32 |
| 110 % of control | B33 |
| 102 % of control | B34 |
| 105 % of control | B35 |
| 147 % of control | B36 |
| 103 % of control | B37 |

target: T4, FcγRIIb; assay: as above
Method: as §1, §2

| He/Con_2b | Binder |
| --- | --- |
| 95 % of control | B16 |
| 95 % of control | B17 |
| 94.6 % of control | B18 |
| 94.3 % of control | B19 |
| 90.8 % of control | B20 |
| 89.6 % of control | B21 |
| 98.4 % of control | B22 |
| 89.8 % of control | B23 |
| 76.5 % of control | B24 |
| 67.5 % of control | B25 |
| 93 % of control | B26 |
| 81.8 % of control | B27 |
| 84.8 % of control | B28 |
| 86.1 % of control | B29 |
| 87.6 % of control | B30 |
| 89.2 % of control | B31 |
| 97.6 % of control | B32 |
| 89.9 % of control | B33 |
| 90.3 % of control | B34 |
| 80.7 % of control | B35 |
| 58.2 % of control | B36 |
| 94.3 % of control | B37 |

From US20150344570A1 (published 2015)
